Where two headings read alike, the source gives them in different places.
T1: FAM19A5 mutant M6 (human)
T1 construct: FAM19A5 with region 6 replaced by the consensus of FAM19A1-4; The entry already carries the changes
T1 chain: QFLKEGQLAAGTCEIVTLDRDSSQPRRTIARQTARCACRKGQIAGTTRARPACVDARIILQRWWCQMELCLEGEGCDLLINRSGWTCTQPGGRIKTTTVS

T2: FAM19A5 mutant M8 (human)
T2 construct: FAM19A5 with region 8 replaced by the consensus of FAM19A1-4; The entry already carries the changes
T2 chain: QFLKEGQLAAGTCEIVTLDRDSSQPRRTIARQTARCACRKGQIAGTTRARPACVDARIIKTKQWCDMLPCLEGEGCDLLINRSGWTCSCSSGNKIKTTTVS

T3: FAM19A5-M1
T3 construct: also called FAM19A5 mutant M1
T3 FAM19A5 mutant: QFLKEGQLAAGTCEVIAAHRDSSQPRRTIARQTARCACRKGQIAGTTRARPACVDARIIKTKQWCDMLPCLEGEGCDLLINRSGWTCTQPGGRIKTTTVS

T4: FAM19A5-M2
T4 construct: also called FAM19A5 mutant M2
T4 FAM19A5 mutant: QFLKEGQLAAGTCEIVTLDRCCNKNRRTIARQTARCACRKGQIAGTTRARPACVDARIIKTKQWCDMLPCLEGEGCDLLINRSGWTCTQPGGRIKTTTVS

T5: FAM19A5-M3
T5 construct: also called FAM19A5 mutant M3
T5 FAM19A5 mutant: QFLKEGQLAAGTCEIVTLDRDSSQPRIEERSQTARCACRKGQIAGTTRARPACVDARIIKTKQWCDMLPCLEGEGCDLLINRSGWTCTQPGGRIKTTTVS

T6: FAM19A5-M4
T6 construct: also called FAM19A5 mutant M4
T6 FAM19A5 mutant: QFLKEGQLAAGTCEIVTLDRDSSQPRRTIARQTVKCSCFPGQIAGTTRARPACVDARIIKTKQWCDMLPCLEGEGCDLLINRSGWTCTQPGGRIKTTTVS

T7: FAM19A5-M5
T7 construct: also called FAM19A5 mutant M5
T7 FAM19A5 mutant: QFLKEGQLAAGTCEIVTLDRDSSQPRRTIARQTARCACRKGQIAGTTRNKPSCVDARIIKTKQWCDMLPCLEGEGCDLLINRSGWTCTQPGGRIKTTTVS

T8: FAM19A5 mutant M7 (human)
T8 construct: FAM19A5 with region 7 replaced by the consensus of FAM19A1-4; The entry already carries the changes
T8 chain: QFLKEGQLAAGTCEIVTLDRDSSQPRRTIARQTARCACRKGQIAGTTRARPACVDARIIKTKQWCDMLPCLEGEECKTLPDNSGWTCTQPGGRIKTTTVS

B1: Anti-FAM19A5 (13B4) (antibody, V domains shown)
VH: QVQLQESGPGLVKPSGTLSLNCAVSGGSISSSNWWSWVRQPPGKGLEWIGEIYHGGTTNYNPSLKGRVTMSVDKTKNQFSLRLSSVTAVDTAVYYCARWQLVGGLDVWGQGTTVTVSS
VL: SYELTQPLSVSVSPGQTASITCSGDKLGNVYASWYQQKPGQSPTLVIYQDNKRPSGIPERFSGSNSGKTATLTISGTQALDEADYYCQAWDSSTAVFGGGTKLTVL
notes: Only variable domains are tied to the name
B2: Anti-FAM19A5 (P2-A03) (antibody, V domains shown)
VH: QSVEESGGRLVTPGTPLTLTCTVSGFSLNNYDMSWVRQAPGKGLEYIGFMDTDGSAYYATWAKGRFTISRTSTTVDLKMTSPTTEDTATYFCARRGSSYYGGIDIWGPGTPVTVSL
VL: ELDLTQTPASVSEPVGGTVTIKCQASQSIGGNLAWYQQKPGQPPKLLIYRASTLASGVPSRFKGSGSGTDFTLTISDLECADAATYYCQSPAYDPAAYVGNAFGGGTELEIL
notes: as for B1

Experiments:
[1] = target: T1, FAM19A5 mutant M6; test: ELISA on phage-displayed FAM19A5 mutants; y axis without label
[2] = target: T2, FAM19A5 mutant M8; test: as above
[3] = target: T3, FAM19A5-M1; test: ELISA on phage-displayed FAM19A5 mutants; y axis without label; no blank in the panel
[4] = target: T4, FAM19A5-M2; test: as above
[5] = target: T5, FAM19A5-M3; test: as above
[6] = target: T6, FAM19A5-M4; test: as above
[7] = target: T7, FAM19A5-M5; test: as above
[8] = target: T8, FAM19A5 mutant M7; test: as above
[9] = target: T1, FAM19A5 mutant M6; test: ELISA on phage-displayed FAM19A5 mutants; y axis without label
[10] = target: T8, FAM19A5 mutant M7; test: as above
[11] = target: T2, FAM19A5 mutant M8; test: as above
[12] = target: T3, FAM19A5-M1; test: ELISA on phage-displayed FAM19A5 mutants; y axis without label; no blank in the panel, lowest bars about 0.05
[13] = target: T4, FAM19A5-M2; test: as above
[14] = target: T5, FAM19A5-M3; test: as above
[15] = target: T6, FAM19A5-M4; test: as above
[16] = target: T7, FAM19A5-M5; test: as above

binding result [1]	binding result [2]	binding result [3]	binding result [4]	binding result [5]	binding result [6]	binding result [7]	binding result [8]	binding result [9]	binding result [10]	binding result [11]	binding result [12]	binding result [13]	binding result [14]	binding result [15]	binding result [16]	Binder
no binding	no binding	binds	binds	binds	binds	binds	binds	–	–	–	–	–	–	–	–	B1
–	–	–	–	–	–	–	–	no binding	no binding	no binding	binds	binds	binds	binds	binds	B2

Source: patent US20250236663A1 (NEURACLE SCIENCE, published 2025)
